The labels stand for the following.
B1: peptide QVWEIQHTV (SEQ ID NO: 51) (peptide)
peptide: QVWEIQHTV
B2: peptide GLLESPSIFNFTA (SEQ ID NO: 36) (peptide)
peptide: GLLESPSIFNFTA
B3: peptide ILHDINSDGVL (SEQ ID NO: 85) (peptide)
peptide: ILHDINSDGVL
B4: peptide ALLSQQTHL (SEQ ID NO: 81) (peptide)
peptide: ALLSQQTHL
B5: peptide SLESKLTSV (SEQ ID NO: 44) (peptide)
peptide: SLESKLTSV
B6: peptide ALWEKNTHL (SEQ ID NO: 33) (peptide)
peptide: ALWEKNTHL
B7: peptide FLDASDPAL (SEQ ID NO: 48) (peptide)
peptide: FLDASDPAL
B8: peptide YLLDYPNNLL (SEQ ID NO: 72) (peptide)
peptide: YLLDYPNNLL
B9: peptide WLFDDGGLTL (SEQ ID NO: 5) (peptide)
peptide: WLFDDGGLTL
B10: peptide NLLEKENYL (SEQ ID NO: 57) (peptide)
peptide: NLLEKENYL
B11: peptide SILQFVHMV (SEQ ID NO: 68) (peptide)
peptide: SILQFVHMV
B12: peptide KLYERCEW (SEQ ID NO: 47) (peptide)
peptide: KLYERCEVV
notes: also called KLYERCEVV
B13: peptide VLDEDEPRFL (SEQ ID NO: 60) (peptide)
peptide: VLDEDEPRFL
B14: peptide SILDDSFKL (SEQ ID NO: 42) (peptide)
peptide: SILDDSFKL
B15: peptide RLAELTVDEFL (SEQ ID NO: 4) (peptide)
peptide: RLAELTVDEFL
B16: peptide YLFDIAVSM (SEQ ID NO: 73) (peptide)
peptide: YLFDIAVSM
B17: peptide VLFTDEGVPKFL (SEQ ID NO: 56) (peptide)
peptide: VLFTDEGVPKFL
B18: peptide FLLGSEIKL (SEQ ID NO: 53) (peptide)
peptide: FLLGSEIKL
B19: peptide TLMAEMHW (SEQ ID NO: 50) (peptide)
peptide: TLMAEMHVV
B20: peptide YLIGEKQHYL (SEQ ID NO: 76) (peptide)
peptide: YLIGEKQHYL
B21: peptide TLDAAQPRV (SEQ ID NO: 43) (peptide)
peptide: TLDAAQPRV
B22: peptide GLLKPGLNVVL (SEQ ID NO: 90) (peptide)
peptide: GLLKPGLNVVL
notes: also called …
B23: peptide LTIEDGIFEV (SEQ ID NO: 83) (peptide)
peptide: LTIEDGIFEV
B24: peptide SLLKRDFGA (SEQ ID NO: 77) (peptide)
peptide: SLLKRDFGA
B25: peptide ALLNGEYLLAA (SEQ ID NO: 54) (peptide)
peptide: ALLNGEYLLAA
B26: peptide GLDDRYSLV (SEQ ID NO: 46) (peptide)
peptide: GLDDRYSLV
B27: peptide AMADKMDMSL (SEQ ID NO: 58) (peptide)
peptide: AMADKMDMSL
B28: peptide GMLNEAEGKAIKL (SEQ ID NO: 69) (peptide)
peptide: GMLNEAEGKAIKL
B29: peptide KLLDLTVRI (SEQ ID NO: 35) (peptide)
peptide: KLLDLTVRI
B30: peptide … (SEQ ID NO: 80) (peptide)
peptide: QVDEVVDIMRV
notes: also called QVDEVVDIMRV
B31: peptide ALDSSNSMQTI (SEQ ID NO: 52) (peptide)
peptide: ALDSSNSMQTI
B32: peptide ALMLQGVDLL (SEQ ID NO: 8) (peptide)
peptide: ALMLQGVDLL
B33: peptide KLLKLFQGV (SEQ ID NO: 61) (peptide)
peptide: KLLKLFQGV
B34: peptide KVFPGKISV (SEQ ID NO: 86) (peptide)
peptide: KVFPGKISV
B35: peptide YLTRHLAVL (SEQ ID NO: 7) (peptide)
peptide: YLTRHLAVL
B36: peptide FLAELPGSLSL (SEQ ID NO: 6) (peptide)
peptide: FLAELPGSLSL
B37: peptide ALAELLHGA (SEQ ID NO: 45) (peptide)
peptide: ALAELLHGA
B38: peptide KLDIKVETV (SEQ ID NO: 88) (peptide)
peptide: KLDIKVETV
B39: peptide QLYEEPDTKL (SEQ ID NO: 82) (peptide)
peptide: QLYEEPDTKL
B40: peptide KTLGKLWRL (SEQ ID NO: 64) (peptide)
peptide: KTLGKLWRL
B41: peptide LLYGKYVSV (SEQ ID NO: 31) (peptide)
peptide: LLYGKYVSV
B42: peptide GLDDGPDFL (SEQ ID NO: 66) (peptide)
peptide: GLDDGPDFL
B43: peptide YLAPENGYL (SEQ ID NO: 62) (peptide)
peptide: YLAPENGYL
B44: peptide SMVEDITGLRL (SEQ ID NO: 84) (peptide)
peptide: SMVEDITGLRL
B45: peptide KLFSILSTV (SEQ ID NO: 63) (peptide)
peptide: KLFSILSTV
B46: peptide ILLEKSVSV (SEQ ID NO: 34) (peptide)
peptide: ILLEKSVSV
B47: peptide LLTDNWKL (SEQ ID NO: 59) (peptide)
peptide: LLTDNVVKL
B48: peptide KLNTETFGV (SEQ ID NO: 32) (peptide)
peptide: KLNTETFGV
B49: peptide SLNDLEKDVMLL (SEQ ID NO: 67) (peptide)
peptide: SLNDLEKDVMLL
B50: peptide ILDDSFKLL (SEQ ID NO: 41) (peptide)
peptide: ILDDSFKLL
B51: peptide GLFAGLGGAGA (SEQ ID NO: 37) (peptide)
peptide: GLFAGLGGAGA
B52: peptide LLFDAPDLRL (SEQ ID NO: 87) (peptide)
peptide: LLFDAPDLRL
B53: peptide ALDPELLLL (SEQ ID NO: 78) (peptide)
peptide: ALDPELLLL
B54: peptide SLIEYEFRV (SEQ ID NO: 89) (peptide)
peptide: SLIEYEFRV
B55: peptide SLAADQLLKL (SEQ ID NO: 79) (peptide)
peptide: SLAADQLLKL
B56: peptide ALSNVIHKV (SEQ ID NO: 40) (peptide)
peptide: ALSNVIHKV
B57: peptide SLAPTPVSA (SEQ ID NO: 38) (peptide)
peptide: SLAPTPVSA
B58: peptide EMIENIQSV (SEQ ID NO: 75) (peptide)
peptide: EMIENIQSV
B59: peptide RLWTEIPTAI (SEQ ID NO: 71) (peptide)
peptide: RLWTEIPTAI
B60: peptide YLMGFLHAV (SEQ ID NO: 74) (peptide)
peptide: YLMGFLHAV
B61: peptide MISELEVRL (SEQ ID NO: 70) (peptide)
peptide: MISELEVRL

Bounds are passed on as bounds.

This passage reports peptide exchange yield results from patent publication US20230212244A1 (IMMATICS BIOTECHNOLOGIES, published 2023).

The assay addresses T1, HLA-A*02:01 (human).
T1 construct: MHC class I monomer made peptide-receptive by UV cleavage of a UV-sensitive ligand; also called peptide-receptive MHC molecules
As to the kind of experiment: UV-ligand exchange ELISA (anti-β2m), peptide exchange yield grade. An excerpt:
Candidate peptides for T cell based therapies according to the present invention were further tested for their MHC binding capacity (affinity). The individual peptide-MHC complexes were produced by UV-ligand exchange, where a UV-sensitive peptide is cleaved upon UV-irradiation, and exchanged with the peptide of interest as analyzed. Only peptide candidates that can effectively bind and stabilize the peptide-receptive MHC molecules prevent dissociation of the MHC complexes. To determine the yield of the exchange reaction, an ELISA was performed based on the detection of the light chain (β2m) of stabilized MHC complexes. The assay was performed as generally described in Rodenko et al. (Rodenko et al., 2006).
96 well MAXISorp plates (NUNC) were coated over night with 2ug/ml streptavidin in PBS at room temperature, washed 4× and blocked for1h at 37° C. in 2% BSA containing blocking buffer. Refolded HLA-A*02:01/MLA-001 monomers served as standards, covering the range of 15-500 ng/ml. Peptide-MHC monomers of the UV-exchange reaction were diluted 100 fold in blocking buffer. Samples were incubated for 1h at 37° C., washed four times, incubated with 2 ug/ml HRP conjugated anti-β2m for 1h at 37° C., washed again and detected with TMB solution that is stopped with […]. Absorption was measured at 450 nm. Candidate peptides that show a high exchange yield (preferably higher than 50%, most preferred higher than 75 %) are generally preferred for a generation and production of antibodies or fragments thereof, and/or T cell receptors or fragments thereof, as they show sufficient avidity to the MHC molecules and prevent dissociation of the MHC complexes.
Background: ELISA stands for enzyme-linked immunosorbent assay.
B1 had a peptide exchange yield of 20 to 50%.

In the case of B2, the peptide exchange yield was in the range of 50 to 75%.

B3 registered a peptide exchange yield of 20 to 50%.

B4 registered a peptide exchange yield of 50 to 75%.

On to B5, for which the peptide exchange yield lay within 50 to 75%.

Regarding B6, the peptide exchange yield lay within 50 to 75%.

B7 came in with a peptide exchange yield of 20 to 50%.

In turn, B8 yielded a peptide exchange yield of 50 to 75%.

Take B9: the peptide exchange yield is no less than 75%.

As to B10, the peptide exchange yield lay within 50 to 75%.

Turning to B11, the peptide exchange yield is 50 to 75%.

B12 returned a peptide exchange yield of 20 to 50%.

For B13, the peptide exchange yield lay in the range of 20 to 50%.

Molecule B14 gave a peptide exchange yield of no less than 75%.

In turn, B15 displayed a peptide exchange yield of 50 to 75%.

Regarding B16, the peptide exchange yield lay in the range of 50 to 75%.

As to B17, the peptide exchange yield fell in the range of 20 to 50%.

B18 displayed a peptide exchange yield of 50 to 75%.

For B19, the peptide exchange yield fell in the range of 50 to 75%.

In turn, B20 returned a peptide exchange yield of 50 to 75%.

The molecule B21 displayed a peptide exchange yield of 20 to 50%.

In the case of B22, the peptide exchange yield is 50 to 75%.

Molecule B23 gave a peptide exchange yield of 50 to 75%.

With B24, the peptide exchange yield was in the range of 20 to 50%.

With B25, the peptide exchange yield was 50 to 75%.

Consider B26, for which the peptide exchange yield fell in the range of 50 to 75%.

B27 had a peptide exchange yield of 20 to 50%.

B28 registered a peptide exchange yield of 20 to 50%.

Take B29: the peptide exchange yield fell in the range of 50 to 75%.

For the molecule B30, the peptide exchange yield is 20 to 50%.

For B31, the peptide exchange yield lay in the range of 20 to 50%.

As for B32, the peptide exchange yield lay in the range of 50 to 75%.

As to B33, the peptide exchange yield was in the range of 50 to 75%.

B34 registered a peptide exchange yield of 20 to 50%.

The molecule B35 registered a peptide exchange yield of 20 to 50%.

B36 came in with a peptide exchange yield of 50 to 75%.

In turn, B37 registered a peptide exchange yield of 50 to 75%.

The molecule B38 registered a peptide exchange yield of no less than 75%.

Molecule B39 registered a peptide exchange yield of 20 to 50%.

Take B40: the peptide exchange yield was in the range of 20 to 50%.

With B41, the peptide exchange yield lay within 50 to 75%.

Molecule B42 showed a peptide exchange yield of 20 to 50%.

On to B43, for which the peptide exchange yield was in the range of 20 to 50%.

Turning to B44, the peptide exchange yield fell in the range of 50 to 75%.

For B45, the peptide exchange yield lay within 20 to 50%.

Molecule B46 came in with a peptide exchange yield of 50 to 75%.

With B47, the peptide exchange yield was 50 to 75%.

Take B48: the peptide exchange yield was 20 to 50%.

The molecule B49 yielded a peptide exchange yield of 50 to 75%.

For the molecule B50, the peptide exchange yield lay in the range of 20 to 50%.

Take B51: the peptide exchange yield lay in the range of 50 to 75%.

Molecule B52 had a peptide exchange yield of 50 to 75%.

As to B53, the peptide exchange yield lay in the range of 20 to 50%.

In turn, B54 showed a peptide exchange yield of 50 to 75%.

B55: the peptide exchange yield fell in the range of 20 to 50%.

Turning to B56, the peptide exchange yield was 20 to 50%.

In the case of B57, the peptide exchange yield fell in the range of 20 to 50%.

B58 gave a peptide exchange yield of 20 to 50%.

In turn, B59 registered a peptide exchange yield of 50 to 75%.

Consider B60, for which the peptide exchange yield lay within 50 to 75%.

For B61, the peptide exchange yield lay within 50 to 75%.
